Reference: the Human Domainome abundance scans (Beltran et al. 2025)
± gives the uncertainty stated by the source.

B1: Chromodomain-helicase-DNA-binding protein 5, residues 411 to 463; numbered along this chain, Q8TDI0 (parent)
chain: EEDDHMEFCRVCKDGGELLCCDACPSSYHLHCLNPPLPEIPNGEWLCPRCTCP
B2: Pyruvate dehydrogenase protein X component, mitochondrial, residues 181 to 227; numbered along this chain, O00330 (parent)
chain: RFRLSPAARNILEKHSLDASQGTATGPRGIFTKEDALKLVQLKQTGK

Variants of: B1
Test: abundance fitness (aPCA) (normalised: wild type 0, dead -1); higher = more abundant; growth selection in yeast, the domain comes from the species named
Settings: Homo sapiens

For E1A, which abundance fitness is on record?
The abundance fitness was -0.518 ± 0.1.

With E1P as the variant, how does the abundance fitness read?
The abundance fitness was -0.803 ± 0.27.

For E1K, which abundance fitness is on record?
Its abundance fitness is 0.044 ± 0.13.

Which abundance fitness does the source give for E1G here?
Its abundance fitness is -0.304 ± 0.044.

With E1R as the variant, how does the abundance fitness read?
Its abundance fitness is -0.554 ± 0.16.

With E1I as the variant, how does the abundance fitness read?
Its abundance fitness is 0.425 ± 0.27.

Which abundance fitness does the source give for E1C here?
Its abundance fitness is -0.893 ± 0.47.

With E1N as the variant, how does the abundance fitness read?
Its abundance fitness is 0.264 ± 0.15.

For E1D, which abundance fitness is on record?
Its abundance fitness is -0.455 ± 0.085.

With E2C as the variant, how does the abundance fitness read?
Its abundance fitness is -0.398 ± 0.14.

With E2A as the variant, how does the abundance fitness read?
Its abundance fitness is -0.194 ± 0.091.

Variants of: B2
Test: as above
Settings: Homo sapiens

With RFRLSPAARNILEKHSLDASQGTATGPRGIFTKEDALKLVQLKQTSK [G46S] as the variant, how does the abundance fitness read?
Its abundance fitness is -0.05 ± 0.06.

For RFRLSPAARNILEKHSLDASQGTATGPRGIFTKEDALKLVQLKQTLK [G46L], which abundance fitness is on record?
Its abundance fitness is -0.268 ± 0.071.

Which abundance fitness does the source give for RFRLSPAARNILEKHSLDASQGTATGPRGIFTKEDALKLVWLKQTGK [Q41W] here?
The abundance fitness was -0.395 ± 0.056.

For RFRLSPAARNILEKHSLDASQRTATGPRGIFTKEDALKLVQLKQTGK [G22R], which abundance fitness is on record?
Its abundance fitness is -0.723 ± 0.07.

Which abundance fitness does the source give for RFRLSPAARNILEEHSLDASQGTATGPRGIFTKEDALKLVQLKQTGK [K14E] here?
The abundance fitness was 0.19 ± 0.067.

Which abundance fitness does the source give for RFRLSPAARNILEKHSLDASQGTATGPRGIFTKPDALKLVQLKQTGK [E34P] here?
The abundance fitness was -0.714 ± 0.13.

For RFRLSPAARNILEKHSLDASQGTATGPRGIFTDEDALKLVQLKQTGK [K33D], which abundance fitness is on record?
The abundance fitness was -0.279 ± 0.12.

With TFRLSPAARNILEKHSLDASQGTATGPRGIFTKEDALKLVQLKQTGK [R1T] as the variant, how does the abundance fitness read?
Its abundance fitness is -1.29 ± 0.45.

Which abundance fitness does the source give for RFRLSPAARNILEKHSMDASQGTATGPRGIFTKEDALKLVQLKQTGK [L17M] here?
Its abundance fitness is -0.134 ± 0.098.

For RFRLSPAARNILEKHSSDASQGTATGPRGIFTKEDALKLVQLKQTGK [L17S], which abundance fitness is on record?
Its abundance fitness is -0.486 ± 0.057.

Which abundance fitness does the source give for RFRLSPAARNILEKHSLDASQGTATGPRGIFTKEDALKLVQPKQTGK [L42P] here?
Its abundance fitness is -0.347 ± 0.1.

Which abundance fitness does the source give for RFRLDPAARNILEKHSLDASQGTATGPRGIFTKEDALKLVQLKQTGK [S5D] here?
The abundance fitness was -0.098 ± 0.096.

With RFRLSCAARNILEKHSLDASQGTATGPRGIFTKEDALKLVQLKQTGK [P6C] as the variant, how does the abundance fitness read?
The abundance fitness was -0.004 ± 0.091.

Which abundance fitness does the source give for RFRLSQAARNILEKHSLDASQGTATGPRGIFTKEDALKLVQLKQTGK [P6Q] here?
The abundance fitness was -0.08 ± 0.091.

With RFRLSPAARNILEKHSLDASQGTATGPRMIFTKEDALKLVQLKQTGK [G29M] as the variant, how does the abundance fitness read?
The abundance fitness was -0.447 ± 0.1.

For RFRLSPAARNILEKHSLDASQGTATGPRDIFTKEDALKLVQLKQTGK [G29D], which abundance fitness is on record?
Its abundance fitness is -0.101 ± 0.11.

For RFRLSPAARNILEKHSLDASQGTATGPRHIFTKEDALKLVQLKQTGK [G29H], which abundance fitness is on record?
The abundance fitness was -0.773 ± 0.15.

Which abundance fitness does the source give for RFRLSPAARNILEKHSLDASQGTATGPRGIFTKEDALKLVQLPQTGK [K43P] here?
The abundance fitness was -0.477 ± 0.13.

With RFRLSPAARNILEKHSLDASQGTATGPRGIFTKEDALKLVQLDQTGK [K43D] as the variant, how does the abundance fitness read?
The abundance fitness was -0.227 ± 0.14.

For RFRLSPKARNILEKHSLDASQGTATGPRGIFTKEDALKLVQLKQTGK [A7K], which abundance fitness is on record?
Its abundance fitness is -0.187 ± 0.046.

For RFRLSPAARNILEKHSLDASQGTATGPRGIFTKEDAMKLVQLKQTGK [L37M], which abundance fitness is on record?
Its abundance fitness is -0.183 ± 0.061.

Which abundance fitness does the source give for RFRLSPAARYILEKHSLDASQGTATGPRGIFTKEDALKLVQLKQTGK [N10Y] here?
The abundance fitness was -0.192 ± 0.12.

Which abundance fitness does the source give for RFRASPAARNILEKHSLDASQGTATGPRGIFTKEDALKLVQLKQTGK [L4A] here?
Its abundance fitness is -0.37 ± 0.063.

Which abundance fitness does the source give for RFRQSPAARNILEKHSLDASQGTATGPRGIFTKEDALKLVQLKQTGK [L4Q] here?
The abundance fitness was -0.357 ± 0.083.

With RFRYSPAARNILEKHSLDASQGTATGPRGIFTKEDALKLVQLKQTGK [L4Y] as the variant, how does the abundance fitness read?
The abundance fitness was -0.131 ± 0.077.

Which abundance fitness does the source give for RFRLSPAARNRLEKHSLDASQGTATGPRGIFTKEDALKLVQLKQTGK [I11R] here?
The abundance fitness was -0.397 ± 0.054.

Which abundance fitness does the source give for RFVLSPAARNILEKHSLDASQGTATGPRGIFTKEDALKLVQLKQTGK [R3V] here?
Its abundance fitness is 0.04 ± 0.045.

With RFDLSPAARNILEKHSLDASQGTATGPRGIFTKEDALKLVQLKQTGK [R3D] as the variant, how does the abundance fitness read?
The abundance fitness was -0.594 ± 0.13.

Which abundance fitness does the source give for RFPLSPAARNILEKHSLDASQGTATGPRGIFTKEDALKLVQLKQTGK [R3P] here?
Its abundance fitness is -0.188 ± 0.073.

With RFRLSPAARNILEKHSLDASQGTETGPRGIFTKEDALKLVQLKQTGK [A24E] as the variant, how does the abundance fitness read?
The abundance fitness was -0.333 ± 0.082.

With RFRLSPAARNILEKHVLDASQGTATGPRGIFTKEDALKLVQLKQTGK [S16V] as the variant, how does the abundance fitness read?
The abundance fitness was -0.613 ± 0.049.

Which abundance fitness does the source give for RFRLSPAARNILEKHYLDASQGTATGPRGIFTKEDALKLVQLKQTGK [S16Y] here?
The abundance fitness was -0.385 ± 0.066.

For RFRLSPAARNILEKHKLDASQGTATGPRGIFTKEDALKLVQLKQTGK [S16K], which abundance fitness is on record?
The abundance fitness was 0.061 ± 0.07.

With RFRLSPAARNILEKHSLDASQGTATGPRGIFTKEEALKLVQLKQTGK [D35E] as the variant, how does the abundance fitness read?
Its abundance fitness is -0.439 ± 0.2.

Which abundance fitness does the source give for RFRLSPAARNILEKHSLDASQGTATGPRGIWTKEDALKLVQLKQTGK [F31W] here?
Its abundance fitness is -0.675 ± 0.14.

With RFRLSPAARNILEKHSLDASQGTATGPRGIFTKEDKLKLVQLKQTGK [A36K] as the variant, how does the abundance fitness read?
Its abundance fitness is -0.563 ± 0.17.

With RFRLSPAARNILEKHSLDASQGTATGPRGIFTKEDALKLVQLKQFGK [T45F] as the variant, how does the abundance fitness read?
The abundance fitness was -0.147 ± 0.25.

For RFRLSPAARNILSKHSLDASQGTATGPRGIFTKEDALKLVQLKQTGK [E13S], which abundance fitness is on record?
Its abundance fitness is -0.348 ± 0.057.

For RFRLSPAARNILEKHSLDASYGTATGPRGIFTKEDALKLVQLKQTGK [Q21Y], which abundance fitness is on record?
The abundance fitness was -0.481 ± 0.14.

With RFRLSPAARNILEKHSLDASEGTATGPRGIFTKEDALKLVQLKQTGK [Q21E] as the variant, how does the abundance fitness read?
The abundance fitness was 0.041 ± 0.068.

With RFRLSPAARNILEKTSLDASQGTATGPRGIFTKEDALKLVQLKQTGK [H15T] as the variant, how does the abundance fitness read?
The abundance fitness was -0.361 ± 0.075.

With RFRLSPAARNILEKVSLDASQGTATGPRGIFTKEDALKLVQLKQTGK [H15V] as the variant, how does the abundance fitness read?
The abundance fitness was -0.506 ± 0.053.

With RFRLSPACRNILEKHSLDASQGTATGPRGIFTKEDALKLVQLKQTGK [A8C] as the variant, how does the abundance fitness read?
Its abundance fitness is -0.999 ± 0.096.

With RFRLSPAIRNILEKHSLDASQGTATGPRGIFTKEDALKLVQLKQTGK [A8I] as the variant, how does the abundance fitness read?
The abundance fitness was -1.07 ± 0.17.

Which abundance fitness does the source give for RFRLSPAARNILEKHSLDASQGVATGPRGIFTKEDALKLVQLKQTGK [T23V] here?
Its abundance fitness is 0.006 ± 0.058.

With RFRLSPAARNILEKHSLDASQGDATGPRGIFTKEDALKLVQLKQTGK [T23D] as the variant, how does the abundance fitness read?
The abundance fitness was -0.058 ± 0.079.

For RFRLSPAARNILEKHSLDASQGTATGPRGIFTKEDALSLVQLKQTGK [K38S], which abundance fitness is on record?
Its abundance fitness is 0.007 ± 0.085.

With RLRLSPAARNILEKHSLDASQGTATGPRGIFTKEDALKLVQLKQTGK [F2L] as the variant, how does the abundance fitness read?
The abundance fitness was -0.46 ± 0.046.

With RRRLSPAARNILEKHSLDASQGTATGPRGIFTKEDALKLVQLKQTGK [F2R] as the variant, how does the abundance fitness read?
Its abundance fitness is -0.65 ± 0.041.

For RFRLSPAARNILEKHSLDASQGTATGPRGIFTKEDALKYVQLKQTGK [L39Y], which abundance fitness is on record?
Its abundance fitness is -0.874 ± 0.17.

Which abundance fitness does the source give for RFRLSPAARNILEKHSLDASQGTATGPRGIFTKEDALKEVQLKQTGK [L39E] here?
The abundance fitness was -0.28 ± 0.047.
